The record followed here is the supplement of paper PMC10724198.

± gives the standard deviation of the averaged measurements.
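Further: PSI is a weighted mean of sequencing reads over stability bins, variants kept only with over 10 reads, mCherry proximal and sfGFP distal, peptide attached via GGGS linker.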

This data set has as its system Saccharomyces cerevisiae. As to the kind of experiment: protein stability index of tFT-peptide fusion (C-terminal peptide) (PSI (0-1 scale)); higher = more stable (slower turnover). The note with it: genetic background: wild type; temperature: 30 C.
For PSPFPPPSHPSP, the protein stability index is 0.695 ± 0.0041.

PSPHAITSHFRP had a protein stability index of 0.723 ± 0.04. To PSPHRELNESHE belongs 0.674 ± 0.045; to PSPHSPPSFLPL, 0.729 ± 0.024. The sequence PSPLRLPPPSVP showed a protein stability index of 0.712 ± 0.013. In the case of PSPMVPHVPMST it was 0.74579 ± 0.00057; in that of PSPPLLTPLPPC, 0.675 ± 0.022; in that of PSPPPGPPPLPP, 0.613 ± 0.011. In the case of PSPPPHPGGTRR it was 0.652 ± 0.057.

As to PSPPPHPIHPMA, the protein stability index stood at 0.754 ± 0.18. In the case of PSPPPHSAPPLP it was 0.732 ± 0.025; in that of PSPPPLLPRPHL, 0.714 ± 0.1.

PSPPPPAPPPPP registered a protein stability index of 0.666 ± 0.013. PSPPPPPLPPAG: the protein stability index was 0.663 ± 0.097. In the case of PSPPPPSALLSP it was 0.727 ± 0.066.

Consider PSPPPPSLPPPP, for which the protein stability index is 0.67 ± 0.15. To PSPPPRPPLSPP belongs 0.715 ± 0.052. PSPPPVRPRHHH displayed a protein stability index of 0.597 ± 0.069. For the sequence PSPPSLPSCYAT, the protein stability index came out at 0.717 ± 0.029. With PSPPTPSPPPPP, the protein stability index is 0.712 ± 0.062.

With PSPRPAPPPPPP, the protein stability index came out at 0.707 ± 0.054. For PSPSAFLPCRLD, the protein stability index came to 0.791 ± 0.094. To PSPSPPRSPALS belongs 0.713 ± 0.056; to PSPVLLLPPPSL, 0.745 ± 0.059; to PSPWPPPPSDPP, 0.552 ± 0.12.

The sequence PSQRRTPPGLFK showed a protein stability index of 0.656 ± 0.059. To PSRRILFSAALL belongs 0.764 ± 0.28; to PSRYHPLPPPTP, 0.711 ± 0.084; to PSSDVLLFALSF, 0.6486 ± 0.0049. In the case of PSSPLFLPPPPP it was 0.696 ± 0.023. In the case of PSSPPPPPLPPC it was 0.649 ± 0.058; in that of PSSPSTRPRFPL, 0.68 ± 0.083. Turning to PSSRPPMSPIDT, the protein stability index came to 0.694 ± 0.018. In the case of PSSSSPPPTFSL it was 0.625 ± 0.066; in that of PSSSSPPSLTPA, 0.672 ± 0.097. To PSTLPSHRVPLK belongs 0.68 ± 0.041; to PSTPRPPRPPPL, 0.695 ± 0.027. In the case of PSTRVPATTHTL it was 0.6983 ± 0.00091; in that of PSVPPSPPAPPT, 0.687 ± 0.032. The sequence PSVPSPPPPSPP yielded a protein stability index of 0.683 ± 0.024. In the case of PSWPRRSSPLAI it was 0.73 ± 0.013.

The sequence PSWVFRCAPSPF had a protein stability index of 0.505 ± 0.084. The sequence PSYPTAPHHSAA displayed a protein stability index of 0.704 ± 0.043. For the sequence PTARGACRAPRS, the protein stability index came out at 0.667 ± 0.037. To PTGSGLTLNRVL belongs 0.7187 ± 0.0062; to PTHPSRLRLFSA, 0.612 ± 0.024. In the case of PTLAFIPIPTLF it was 0.6051 ± 0.004; in that of PTLCLPESSGRL, 0.705 ± 0.028; in that of PTLWRSSVRHVW, 0.714 ± 0.066. To PTPCCFPHPPPT belongs 0.709 ± 0.02.

Consider PTPFVPSPPCRA, for which the protein stability index was found to be 0.664 ± 0.041. In the case of PTPGSSPLPATL it was 0.687 ± 0.0075; in that of PTPPHPSHPTAP, 0.665 ± 0.023; in that of PTPPPLTPPPCF, 0.678 ± 0.014. As to PTPSPPLPPITP, the protein stability index was 0.773 ± 0.024. In the case of PTPTGPGSTSPP it was 0.662 ± 0.046. PTQSPSTIPPSP displayed a protein stability index of 0.763 ± 0.11.

Sequence PTRPPPTSHTPY gave a protein stability index of 0.685 ± 0.02. In turn, PTRPSHTALPSA returned a protein stability index of 0.664 ± 0.023. PTRRQEVPPEPT came in with a protein stability index of 0.636 ± 0.058. In the case of PTSPTTSPDHKH it was 0.684 ± 0.15; in that of PTTAPPPRSAGA, 0.764 ± 0.051; in that of PTTFLSPPSPPS, 0.71 ± 0.011. In the case of PTTPPPSVPPLY it was 0.715 ± 0.042.
